The text below walks through data of US20090188010A1.

Assay [1] concerns the target NaPI-insensitive chymotrypsin from H. punctigera (HpCh5), native enzyme from the larval gut (Helicoverpa punctigera). The assay is described as follows: cell-based or functional assay.
Assay [2] concerns the target chymotrypsins in unfractionated gut extracts from H. punctigera larvae. The assay is described as follows: cell-based or functional assay.

Sequence of NaPI-insensitive chymotrypsin from H. punctigera (HpCh5), native enzyme from the larval gut (Helicoverpa punctigera) (chain, as listed by the source limits assumed): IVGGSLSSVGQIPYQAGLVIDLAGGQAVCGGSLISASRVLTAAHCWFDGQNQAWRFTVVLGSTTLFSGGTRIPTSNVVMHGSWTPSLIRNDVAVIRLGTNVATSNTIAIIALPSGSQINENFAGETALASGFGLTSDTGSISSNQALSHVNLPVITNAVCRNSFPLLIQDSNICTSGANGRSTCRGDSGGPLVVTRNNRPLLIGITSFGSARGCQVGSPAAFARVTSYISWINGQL

B1: StPotIA, bacterially expressed with N-terminal 6xHis-tag (protein, not shown: small tags and cut ends)
chain: KESESESWCKGKQFWPELIGVPTKLAKEIIEKENPSINDVPIILNGTPVPADFRCNRVRLFDNILGDVVQIPRVA
As for B1, in assay [1], the inhibition of SA2PFpNA or SA2PLpNA hydrolysis at 300 nM inhibitor was greater than 75% and the inhibition of SA2PMpNA hydrolysis came out at 40%.

B2: recombinant C1 inhibitor with N-terminal hexahistidine tag, expressed in E. coli (protein, not shown: small tags and cut ends)
chain: DRICTNCCAGTKGCKYFSDDGTFVCEGESDPRNPKACTLNCDPRIAYGVCPRSEEKKN
In assay [2], B2 came in with an inhibition of gut chymotrypsin activity, unfractionated gut extract (FIG. 3) of 70%.

B3: StPotIB, bacterially expressed with N-terminal 6xHis-tag (protein, not shown: small tags and cut ends)
chain: KEFECNGKQFWPELIGVPTKLAKEIIEKENSLINNVQILLNGSPVTMDYRCNRVRLFDNILGSVVQIPRVA
In assay [1], B3 came in with an inhibition of SA2PFpNA or SA2PLpNA hydrolysis at 300 nM inhibitor greater than 75% and an inhibition of SA2PMpNA hydrolysis of 40%.
